Laboratory results from US20240116985A1 (published 2024).
Starred links: 1 amine or outer side, 2 acyl side, 3 side chain; linkers in the order of their positions; H or OH if unused. Positions of bridges follow the written chain, without caps; N, C: chain ends. Non-standard residues stand in square brackets, D forms with d. Primed or numbered codes have the meaning given here. PyrS2″ = (S)-3-amino-1-((pent-4-en-1-yloxy)carbonyl)pyrrolidine-3-carboxylic acid (stapling residue), C=CCCCOC(=O)N1CC[C@@](N[*:1])(C(=O)[*:2])C1; B5(4) = 2,2-bis(4-pentenyl)glycine = 2-amino-2-(pent-4-en-1-yl)hept-6-enoic acid (stitching residue), C=CCCCC(CCCC=C)(N[*:1])C(=O)[*:2]; TfeGA = (S)-2-amino-3-((carboxymethyl)(2,2,2-trifluoroethyl)amino)propanoic acid, O=C([C@H](CN(CC(=O)[*:3])CC(F)(F)F)N[*:1])[*:2]; B5(3) = 2,2-bis(4-pentenyl)glycine (stitching residue), C=CCCCC(CCCC=C)(N[*:1])C(=O)[*:2]; S3 = (S)-2-amino-2-methylpent-4-enoic acid, C=CC[C@](C)(N[*:1])C(=O)[*:2]; Phe(2-Cl) = N[C@@H](Cc1ccccc1Cl)C(=O)O; Bta = N[C@@H](Cc1csc2ccccc12)C(=O)O; αAllylPro = C=CC[C@@]1(C(=O)O)CCCN1; tBuAla = CC(C)(C)C[C@H](N)C(=O)O; 3Thi = N[C@@H](Cc1ccsc1)C(=O)O; Leu(ol) = CC(C)C[C@H](N)CO; Aib = CC(C)(N)C(=O)O

T1: B-cat-Halo (beta-catenin HaloTag Nano-BRET construct) (UniProt P35222 1-781)
T1 sequence (looked up): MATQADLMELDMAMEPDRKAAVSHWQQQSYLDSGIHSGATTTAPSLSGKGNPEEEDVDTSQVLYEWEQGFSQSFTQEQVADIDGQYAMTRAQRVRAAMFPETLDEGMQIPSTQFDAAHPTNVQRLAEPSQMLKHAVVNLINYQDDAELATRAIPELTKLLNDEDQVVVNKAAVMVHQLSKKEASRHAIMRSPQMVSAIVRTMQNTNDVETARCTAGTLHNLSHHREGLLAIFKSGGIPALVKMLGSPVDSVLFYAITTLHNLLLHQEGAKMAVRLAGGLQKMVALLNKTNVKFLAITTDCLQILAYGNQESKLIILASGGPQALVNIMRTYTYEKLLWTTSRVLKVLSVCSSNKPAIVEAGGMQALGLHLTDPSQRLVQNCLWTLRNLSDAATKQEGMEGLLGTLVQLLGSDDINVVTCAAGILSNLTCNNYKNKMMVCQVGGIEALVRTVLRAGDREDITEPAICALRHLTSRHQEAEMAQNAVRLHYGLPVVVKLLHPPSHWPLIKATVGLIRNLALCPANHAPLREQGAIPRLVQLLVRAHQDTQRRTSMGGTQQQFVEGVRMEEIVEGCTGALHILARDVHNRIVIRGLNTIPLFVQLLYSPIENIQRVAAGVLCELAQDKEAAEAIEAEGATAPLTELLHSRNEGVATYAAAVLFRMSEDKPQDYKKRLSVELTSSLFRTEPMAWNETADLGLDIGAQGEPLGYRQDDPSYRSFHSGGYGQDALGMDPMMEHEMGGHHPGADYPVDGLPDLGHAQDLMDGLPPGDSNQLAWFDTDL

T2: beta-catenin in DLD1 TCF/LEF luciferase reporter cells (UniProt P35222 1-781)
T2 sequence (looked up): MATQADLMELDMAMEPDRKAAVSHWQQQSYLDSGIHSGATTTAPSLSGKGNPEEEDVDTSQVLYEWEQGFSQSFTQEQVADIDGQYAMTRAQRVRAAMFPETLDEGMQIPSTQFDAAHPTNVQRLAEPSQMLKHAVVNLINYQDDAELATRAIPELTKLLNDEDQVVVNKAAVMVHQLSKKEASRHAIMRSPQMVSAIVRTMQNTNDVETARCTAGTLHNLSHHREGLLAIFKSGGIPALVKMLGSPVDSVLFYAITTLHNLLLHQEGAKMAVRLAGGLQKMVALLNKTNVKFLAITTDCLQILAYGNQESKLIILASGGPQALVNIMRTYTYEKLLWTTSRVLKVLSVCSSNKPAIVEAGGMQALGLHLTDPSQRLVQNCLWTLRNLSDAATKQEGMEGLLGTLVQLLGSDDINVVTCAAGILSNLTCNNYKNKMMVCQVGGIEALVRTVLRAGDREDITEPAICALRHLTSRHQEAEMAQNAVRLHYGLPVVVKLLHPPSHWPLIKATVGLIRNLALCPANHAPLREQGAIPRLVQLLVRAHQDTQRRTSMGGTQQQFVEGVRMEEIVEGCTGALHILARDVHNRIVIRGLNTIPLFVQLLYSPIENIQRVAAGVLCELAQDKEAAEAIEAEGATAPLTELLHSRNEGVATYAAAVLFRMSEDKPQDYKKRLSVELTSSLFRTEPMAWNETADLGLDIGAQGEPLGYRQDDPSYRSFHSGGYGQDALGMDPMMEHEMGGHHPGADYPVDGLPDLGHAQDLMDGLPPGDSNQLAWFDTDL

T3: B-cat-Halo (beta-catenin HaloTag NanoBRET construct expressed in HEK293 cells) (UniProt P35222 1-781)
T3 sequence (looked up): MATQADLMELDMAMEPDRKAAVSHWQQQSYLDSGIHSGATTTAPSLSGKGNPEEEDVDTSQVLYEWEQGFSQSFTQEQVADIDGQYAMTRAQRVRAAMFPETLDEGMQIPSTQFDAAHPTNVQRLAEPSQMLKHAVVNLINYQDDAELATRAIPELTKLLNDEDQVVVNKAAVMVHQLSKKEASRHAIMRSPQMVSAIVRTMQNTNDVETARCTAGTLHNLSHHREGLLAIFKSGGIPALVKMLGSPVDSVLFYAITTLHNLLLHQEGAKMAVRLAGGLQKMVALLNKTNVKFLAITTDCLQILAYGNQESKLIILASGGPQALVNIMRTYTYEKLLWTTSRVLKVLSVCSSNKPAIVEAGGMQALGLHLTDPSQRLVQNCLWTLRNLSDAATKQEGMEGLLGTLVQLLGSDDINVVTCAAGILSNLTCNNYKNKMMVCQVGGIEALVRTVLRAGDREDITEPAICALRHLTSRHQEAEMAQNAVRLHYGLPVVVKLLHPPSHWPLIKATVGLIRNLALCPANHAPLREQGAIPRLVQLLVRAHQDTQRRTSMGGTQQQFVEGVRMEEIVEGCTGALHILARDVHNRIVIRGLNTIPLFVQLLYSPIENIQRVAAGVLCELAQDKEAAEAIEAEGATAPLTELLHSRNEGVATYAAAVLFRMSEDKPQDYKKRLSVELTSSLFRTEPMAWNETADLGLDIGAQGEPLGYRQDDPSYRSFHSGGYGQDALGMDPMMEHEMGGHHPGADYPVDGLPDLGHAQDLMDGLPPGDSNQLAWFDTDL

T4: beta-catenin in DLD1 TCF/LEF luciferase reporter cells (UniProt P35222 1-781)
T4 sequence (looked up): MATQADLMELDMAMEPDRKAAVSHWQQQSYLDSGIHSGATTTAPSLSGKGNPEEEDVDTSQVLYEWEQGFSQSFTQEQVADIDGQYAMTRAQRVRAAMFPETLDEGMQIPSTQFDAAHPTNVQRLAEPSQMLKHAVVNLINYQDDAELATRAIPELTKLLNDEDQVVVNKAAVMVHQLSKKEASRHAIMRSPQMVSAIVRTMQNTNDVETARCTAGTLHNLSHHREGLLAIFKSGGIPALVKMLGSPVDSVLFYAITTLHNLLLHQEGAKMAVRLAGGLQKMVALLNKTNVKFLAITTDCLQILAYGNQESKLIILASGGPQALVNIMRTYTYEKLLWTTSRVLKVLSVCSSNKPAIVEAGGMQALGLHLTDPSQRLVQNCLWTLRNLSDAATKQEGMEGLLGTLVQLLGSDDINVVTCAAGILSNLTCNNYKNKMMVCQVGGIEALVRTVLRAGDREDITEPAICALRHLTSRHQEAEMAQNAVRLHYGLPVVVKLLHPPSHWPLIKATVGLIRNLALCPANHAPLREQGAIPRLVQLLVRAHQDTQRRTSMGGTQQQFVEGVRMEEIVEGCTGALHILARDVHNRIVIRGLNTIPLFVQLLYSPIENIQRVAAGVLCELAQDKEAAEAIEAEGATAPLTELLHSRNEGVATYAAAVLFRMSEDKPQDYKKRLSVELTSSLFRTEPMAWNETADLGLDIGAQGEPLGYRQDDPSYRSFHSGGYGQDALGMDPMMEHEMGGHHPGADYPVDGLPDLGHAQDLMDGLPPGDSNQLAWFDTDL

T5: B-cat-Halo (beta-catenin HaloTag construct expressed in HEK293 cells) (UniProt P35222 1-781)
T5 sequence (looked up): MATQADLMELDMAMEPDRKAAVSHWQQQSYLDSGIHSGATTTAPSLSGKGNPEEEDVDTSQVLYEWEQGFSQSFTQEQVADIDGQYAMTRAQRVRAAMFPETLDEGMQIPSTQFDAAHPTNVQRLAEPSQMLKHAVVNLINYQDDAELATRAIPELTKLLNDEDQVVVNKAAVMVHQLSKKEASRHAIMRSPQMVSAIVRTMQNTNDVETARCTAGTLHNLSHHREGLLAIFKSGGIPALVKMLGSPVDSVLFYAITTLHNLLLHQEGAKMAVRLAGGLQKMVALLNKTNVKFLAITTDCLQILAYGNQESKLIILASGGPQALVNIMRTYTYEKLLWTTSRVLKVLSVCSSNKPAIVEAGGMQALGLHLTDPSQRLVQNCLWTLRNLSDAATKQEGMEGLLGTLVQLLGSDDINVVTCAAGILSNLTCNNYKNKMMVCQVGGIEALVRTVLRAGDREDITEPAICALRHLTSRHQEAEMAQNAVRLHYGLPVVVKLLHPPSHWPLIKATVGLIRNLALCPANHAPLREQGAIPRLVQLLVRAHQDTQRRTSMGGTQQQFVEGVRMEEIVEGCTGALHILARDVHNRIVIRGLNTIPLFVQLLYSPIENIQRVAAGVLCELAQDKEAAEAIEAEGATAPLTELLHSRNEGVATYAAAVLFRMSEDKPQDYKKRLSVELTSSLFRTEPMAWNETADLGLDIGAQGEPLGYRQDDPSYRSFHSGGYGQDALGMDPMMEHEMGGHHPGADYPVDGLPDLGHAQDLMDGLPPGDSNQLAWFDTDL

T6: B-cat-Halo (UniProt P35222 1-781)
T6 sequence (looked up): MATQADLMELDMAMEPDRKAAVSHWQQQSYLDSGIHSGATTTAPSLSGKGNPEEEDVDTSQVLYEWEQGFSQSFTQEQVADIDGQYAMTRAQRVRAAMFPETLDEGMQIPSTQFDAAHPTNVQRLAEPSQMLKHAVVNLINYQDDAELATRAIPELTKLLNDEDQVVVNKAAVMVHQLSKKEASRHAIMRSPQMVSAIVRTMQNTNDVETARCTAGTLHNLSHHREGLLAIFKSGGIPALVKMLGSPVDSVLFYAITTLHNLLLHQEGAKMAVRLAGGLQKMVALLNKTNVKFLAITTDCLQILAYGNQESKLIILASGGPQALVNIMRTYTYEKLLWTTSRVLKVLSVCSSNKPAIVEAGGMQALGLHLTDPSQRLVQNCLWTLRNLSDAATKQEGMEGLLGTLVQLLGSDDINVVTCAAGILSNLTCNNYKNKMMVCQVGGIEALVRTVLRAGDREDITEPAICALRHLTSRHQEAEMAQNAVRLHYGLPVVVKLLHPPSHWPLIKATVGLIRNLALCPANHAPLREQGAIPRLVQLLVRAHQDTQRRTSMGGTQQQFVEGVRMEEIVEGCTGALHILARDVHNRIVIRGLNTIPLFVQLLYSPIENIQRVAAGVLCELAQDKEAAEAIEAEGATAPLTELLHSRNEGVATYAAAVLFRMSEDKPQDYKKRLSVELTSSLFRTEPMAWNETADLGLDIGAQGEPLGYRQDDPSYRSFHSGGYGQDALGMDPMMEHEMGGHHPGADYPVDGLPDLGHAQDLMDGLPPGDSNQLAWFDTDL


Key:
Assay in all cases: cell-based or functional assay
[1] = biological target: T1, B-cat-Halo (beta-catenin HaloTag …)
[2] = biological target: T2, beta-catenin in DLD1 TCF/LEF luciferase …
[3] = biological target: T3, B-cat-Halo (beta-catenin HaloTag …)
[4] = biological target: T4, beta-catenin in DLD1 TCF/LEF luciferase …; remark: listed apart in the source
[5] = biological target: T5, B-cat-Halo (beta-catenin HaloTag …)
B-cat-Halo = biological target: T6, B-cat-Halo

NanoBRET Abs IC50 [1] | DLD1 reporter assay Abs IC50 [2] | NanoBRET Abs IC50 [3] | Binder | also measured
> 20 µM | – | – | Ac-[αAllylPro]D[tBuAla][S3]DDAAFL[Aib][3Thi][Bta]Q-NH2 (staple 1-4; not fully specified; printed as Ac-PL3-Asp-Npg-S3-Asp-Asp-Ala-Ala-Phe-Leu-Aib-3Thi-BztA-Gln-NH2; also: staple -CH=CH- reduced to -CH2-CH2-) [I-1983] | –
– | 14.5 µM | 19.7 µM | Ac-[αAllylPro]D[tBuAla][B5(4)]DDAAFN[PyrS2″][Phe(2-Cl)][Bta]Q-NHEt (staple 1-4, 4-11) [I-1079] | –
> 20 µM | – | – | Ac-[αAllylPro]D[tBuAla][S3]DDAAFL[Aib][3Thi][Bta]Q-NH2 (staple 1-4) [I-1980] | –
– | 17.2 µM | > 20 µM | Ac-[αAllylPro]D[tBuAla][B5(4)]DDAAFN[PyrS2″][Phe(2-Cl)][Bta][Leu(ol)] (staple 1-4, 4-11) [I-1080] | –
– | – | – | Ac-[αAllylPro]D[tBuAla][B5(3)]DDAAFT[PyrS2″][3Thi][Bta]Q-NH2 (staple 1-4, 4-11) [I-809] | DLD1 4% Abs IC50 [4]: 11.3 µM; NanoBRET Abs IC50 [5]: 6.1 µM
– | – | – | Ac-[αAllylPro]D[tBuAla][B5(3)]D[TfeGA]AAFF[PyrS2″][Phe(2-Cl)][Bta]S-NH2 (staple 1-4, 4-11) [I-990] | NanoBRET Abs IC50 (B-cat-Halo): 8.8 µM
